The record followed here is patent US20110150771A1.

Holding throughout (assay): cell-based or functional assay
Assay [1] concerns the target DEN2 E protein of chimeric WN/DEN2 virus, V-10 seed (E-K122I/K mixed, E-S186F, E-N203D) (Dengue virus type 2, strain 16681 (in a West Nile NY99 backbone)) (UniProt P29990).
Assay [2] concerns the target DEN2 E protein of chimeric WN/DEN2 virus, C6-1 seed (Dengue virus type 2, strain 16681 (in a West Nile NY99 backbone)) (UniProt P29990).
Assay [3] deals with DEN2 E protein of chimeric WN/DEN2 virus, C6-1/V-2 seed (E-N203D) (Dengue virus type 2, strain 16681 (in a West Nile NY99 backbone)) (UniProt P29990).
The target of assay [4] is E protein of wild type West Nile virus NY99 (West Nile virus, strain NY99) (UniProt Q9Q6P4). Particulars: scale: greatest antibody dilution that decreased plaques by at least 50%.
For assay [5], the target named is DEN2 E protein of chimeric WN/DEN2 virus, V-3 seed (E-N203D; NS2A-I49T and NS2A-F94L elsewhere in the virus) (Dengue virus type 2, strain 16681 (in a West Nile NY99 backbone)) (UniProt P29990).

For the substance “DENV-2 E protein-specific monoclonal antibody (MAb3H5)”, the PRNT50 Titer is more than 2560 in assay [1]; more than 2560 in assay [2]; more than 2560 in assay [3]; less than 80 in assay [4]; more than 2560 in assay [5].
Consider “WNV E protein-specific monoclonal antibody (MAb3.67G)”, for which the PRNT50 Titer was less than 1280 in assay [1]; less than 1280 in assay [2]; less than 1280 in assay [3]; more than 41000 in assay [4]; less than 1280 in assay [5].
